Assay results reported in the supplement of paper PMC10567573.

B1: CDC25B (parent)
chain: ELKTFRLKTRSWAGERSRRELCSR
B2: CDS2 (parent)
chain: IHSIALSTFASLIGPFGGFFASGF

Variants of: B1
Test: protein stability index of a GFP-peptide fusion (GPS, HEK-293T) (PSI 1-6); higher = more stable
Conditions: c terminus: a fixed tail appended
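Further: lentivirally expressed fusions sorted by FACS into six bins by GFP to DsRed ratio, PSI derived from sequencing read proportions per bin multiplied by bin number.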

Protein stability index: each site, then its substitutions
R24: S 3.28 | F 1.85 | P 2.82 | Y 2.33 | N 3.38 | A 2.72 | H 3.3 | L 3 | I 2.86 | V 2.7 | C 2.9 | M 2.34 | Q 3.23 | T 2.73 | K 3.38 | E 3.39 | D 2.91 | G 2.59 | W 2.58
C22: T 3.48 | R 4.04 | V 3.54 | S 3.25 | Y 2.6 | Q 3.26 | P 3.01 | W 2.89
S23: Q 3.39 | W 2.69 | N 3.8 | D 4.21 | M 3.26 | A 3.02 | G 3.44 | K 3.62 | C 3.05 | R 2.87 | E 3.53 | V 2.25 | F 3.03 | Y 3.83 | T 3.89 | I 2.95 | L 3.35 | H 3.13 | P 3.26

Variants of: B2
Test: as above
Conditions: c terminus: a fixed tail appended

Protein stability index, by site and new letter:
I1: S 2.57 | Q 1.48 | W 3.6 | F 2.15 | L 2.63 | D 1.79 | P 3.96 | E 4.34 | V 2.61 | H 2.21 | Y 3.05 | A 3.5 | K 2.65 | G 2.84 | T 3.44 | C 3.03 | N 2.63
G18: Y 3.62 | R 3.42 | D 4.39 | Q 3.3 | W 2.32 | F 3.59 | V 3.83 | H 2.38 | K 2.86 | N 2.01 | I 3.04 | T 3.73 | S 2.36 | A 2.37 | P 2.83 | M 3.05 | L 2.48 | E 2.89 | C 2.46
I4: P 3.8 | L 1.57 | A 2.44 | H 2.91 | E 2.14 | Y 2.14 | W 2.65 | T 3.82 | M 2.86 | S 3.51 | R 3.04
A10: V 3.29 | P 2.39 | G 3.32 | E 3.6 | T 4.58 | F 3.04 | D 3.54 | W 3.06 | K 1.79 | C 2.97 | N 1.6 | S 2.6 | I 4.24 | H 2.85 | L 2.98 | M 3.11
G17: M 2.12 | A 2.41 | T 4.3 | F 2.74 | H 3.56 | D 3.88 | R 2.63 | K 2.22 | V 2.5 | Y 2.06 | P 2.78 | I 2.98 | L 3.48 | S 4.37 | E 3.13 | Q 2.83 | C 3.58
F19: E 3.01 | A 2.87 | D 3.49 | C 2.63
L6: Q 2.28 | C 2.06 | E 4.38 | K 3.48 | A 2.63 | Y 3.33 | F 2.34 | G 2.54 | P 2.23 | R 1.67 | V 3.03 | W 2.43 | N 2.62 | T 1.39 | I 3.38 | D 3.13 | M 4.1
T8: N 3.16 | Q 1.86 | W 2.58 | P 3.52 | A 3.48 | G 2.63 | E 2.67 | I 1.82 | H 3.82 | V 2.86 | R 3.47 | M 2.49 | D 2.14
G14: D 3.05 | P 2.67 | A 3.37 | L 3.66 | V 2.64 | W 1.74 | M 2.48
